Percent pairing data for seven molecules are collected here from patent US20230272119A1 (MARENGO THERAPEUTICS, published 2023).

For assay [1], the target named is T1, α-IFN heavy-LgBiT (SEQ ID NO: 107).
T1 construct: VH-CH1-linker-LgBiT; germline VH5-51*01
Briefly: NanoBiT, HC-LgBiT:LC-SmBiT:competing LC 1:1:1; competing lambda LC m48 (SEQ ID NO: 139).

Assay [2] has the same target. Briefly: NanoBiT, HC-LgBiT:LC-SmBiT:competing LC 1:1:1; competing lambda LC m69 (SEQ ID NO: 160).
Assay [3] shares this target. Briefly: NanoBiT, HC-LgBiT:LC-SmBiT:competing LC 1:1:1; competing lambda LC m72 (SEQ ID NO: 163).
Assay [4] addresses T2, α-IL6R heavy-LgBiT (SEQ ID NO: 125).
T2 construct: VH-CH1-linker-LgBiT; germline VH3-9*01
Description: NanoBiT, HC-LgBiT:LC-SmBiT:competing LC 1:1:1; competing lambda LC m45 (SEQ ID NO: 136).

The target is the same in assay [5]. Description: NanoBiT, HC-LgBiT:LC-SmBiT:competing LC 1:1:1; competing lambda LC m48 (SEQ ID NO: 139).
The target is the same in assay [6]. Briefly: NanoBiT, HC-LgBiT:LC-SmBiT:competing LC 1:1:1; competing lambda LC m54 (SEQ ID NO: 145).
For assay [7] the target is unchanged. Briefly: NanoBiT, HC-LgBiT:LC-SmBiT:competing LC 1:1:1; competing lambda LC m63 (SEQ ID NO: 154).
Assay [8] has the same target. Description: NanoBiT, HC-LgBiT:LC-SmBiT:competing LC 1:1:1; competing lambda LC m66 (SEQ ID NO: 157).
Assay [9] concerns the target T3, α-IGF1R heavy-LgBiT (SEQ ID NO: 119).
T3 construct: VH-CH1-linker-LgBiT; germline VH3-21*01
Description: NanoBiT, HC-LgBiT:LC-SmBiT:competing LC 1:1:1; competing lambda LC m51 (SEQ ID NO: 142).

Assay [10] has the same target. Briefly: NanoBiT, HC-LgBiT:LC-SmBiT:competing LC 1:1:1; competing lambda LC m63 (SEQ ID NO: 154).
Assay [11] has the same target. Description: NanoBiT, HC-LgBiT:LC-SmBiT:competing LC 1:1:1; competing lambda LC m69 (SEQ ID NO: 160).
Assay [12] has the same target. Description: NanoBiT, HC-LgBiT:LC-SmBiT:competing LC 1:1:1; competing lambda LC m72 (SEQ ID NO: 163).
In assay [13] the target is T4, α-neuropilin 1 heavy-LgBiT (SEQ ID NO: 131).
T4 construct: VH-CH1-linker-LgBiT; germline VH3-66*01
Description: NanoBiT, HC-LgBiT:LC-SmBiT:competing LC 1:1:1; competing lambda LC m45 (SEQ ID NO: 136).

In assay [14] the target is T4, α-neuropilin 1 heavy-LgBiT (SEQ ID NO: …). Description: NanoBiT, HC-LgBiT:LC-SmBiT:competing LC 1:1:1; competing lambda LC m48 (SEQ ID NO: 139).
Assay [15] has the same target. Description: NanoBiT, HC-LgBiT:LC-SmBiT:competing LC 1:1:1; competing lambda LC m51 (SEQ ID NO: 142).
Assay [16] shares this target. Briefly: NanoBiT, HC-LgBiT:LC-SmBiT:competing LC 1:1:1; competing lambda LC m54 (SEQ ID NO: 145).
The target is the same in assay [17]. Description: NanoBiT, HC-LgBiT:LC-SmBiT:competing LC 1:1:1; competing lambda LC m63 (SEQ ID NO: 154).
Assay [18] shares this target. Description: NanoBiT, HC-LgBiT:LC-SmBiT:competing LC 1:1:1; competing lambda LC m66 (SEQ ID NO: 157).
Assay [19] has the same target. Briefly: NanoBiT, HC-LgBiT:LC-SmBiT:competing LC 1:1:1; competing lambda LC m69 (SEQ ID NO: 160).
The target is the same in assay [20]. Description: NanoBiT, HC-LgBiT:LC-SmBiT:competing LC 1:1:1; competing lambda LC m72 (SEQ ID NO: 163).
Assay [21] deals with T5, α-CD221 heavy-LgBiT (SEQ ID NO: 134).
T5 construct: VH-CH1-linker-LgBiT; germline VH1-69*01
Description: NanoBiT, HC-LgBiT:LC-SmBiT:competing LC 1:1:1; competing kappa LC m15 (SEQ ID NO: 106).

For assay [22] the target is unchanged. Briefly: NanoBiT, HC-LgBiT:LC-SmBiT:competing LC 1:1:1; competing kappa LC m21 (SEQ ID NO: 112).
Assay [23] shares this target. Description: NanoBiT, HC-LgBiT:LC-SmBiT:competing LC 1:1:1; competing kappa LC m33 (SEQ ID NO: 124).
Assay [24] shares this target. Briefly: NanoBiT, HC-LgBiT:LC-SmBiT:competing LC 1:1:1; competing kappa LC m42 (SEQ ID NO: 133).
Assay [25] has as its target T6, α-death receptor 5 heavy-LgBiT (SEQ ID NO: 137).
T6 construct: VH-CH1-linker-LgBiT; germline VH3-20*01
Description: NanoBiT, HC-LgBiT:LC-SmBiT:competing LC 1:1:1; competing kappa LC m12 (SEQ ID NO: 103).

For assay [26], the target named is T6, α-death receptor 5 heavy-LgBiT (SEQ ID …). Briefly: NanoBiT, HC-LgBiT:LC-SmBiT:competing LC 1:1:1; competing kappa LC m18 (SEQ ID NO: 109).
For assay [27] the target is unchanged. Description: NanoBiT, HC-LgBiT:LC-SmBiT:competing LC 1:1:1; competing kappa LC m33 (SEQ ID NO: 124).
For assay [28] the target is unchanged. Briefly: NanoBiT, HC-LgBiT:LC-SmBiT:competing LC 1:1:1; competing kappa LC m36 (SEQ ID NO: 127).
In assay [29] the target is T7, α-IL23 heavy-LgBiT (SEQ ID NO: 140).
T7 construct: VH-CH1-linker-LgBiT; germline VH5-51*01
Briefly: NanoBiT, HC-LgBiT:LC-SmBiT:competing LC 1:1:1; competing kappa LC m6 (SEQ ID NO: 97).

Assay [30] shares this target. Description: NanoBiT, HC-LgBiT:LC-SmBiT:competing LC 1:1:1; competing kappa LC m24 (SEQ ID NO: 115).
Assay [31] shares this target. Briefly: NanoBiT, HC-LgBiT:LC-SmBiT:competing LC 1:1:1; competing kappa LC m27 (SEQ ID NO: 118).
Assay [32] shares this target. Description: NanoBiT, HC-LgBiT:LC-SmBiT:competing LC 1:1:1; competing kappa LC m33 (SEQ ID NO: 124).

B1: α-IFN light-SmBiT (SEQ ID NO: 108) (other)
light: EIVLTQSPGTLSLSPGERATLSCRASQSVSSSFFAWYQQKPGQAPRLLIYGASSRATGIPDRLSGSGSGTDFTLTITRLEPEDFAVYYCQQYDSSAITFGQGTRLEIKRTVAAPSVFIFPPSDEQLKSGTASVVCLLNNFYPREAKVQWKVDNALQSGNSQESVTEQDSKDSTYSLSSTLTLSKADYEKHKVYACEVTHQGLSSPVTKSFNRGECGSSGGGGSGGGGSSGGVTGYRLFEEIL
notes: kappa light chain-linker-SmBiT; germline Vk3-20*01
B1: the Percent pairing in assay [1] was determined as 100%; in assay [2], 80%; in assay [3], 100%.

B2: α-IL6R light-SmBiT (SEQ ID NO: 126) (other)
light: DIQMTQSPSSVSASVGDRVTITCRASQGISSWLAWYQQKPGKAPKLLIYGASSLESGVPSRFSGSGSGTDFTLTISSLQPEDFASYYCQQANSFPYTFGQGTKLEIKRTVAAPSVFIFPPSDEQLKSGTASVVCLLNNFYPREAKVQWKVDNALQSGNSQESVTEQDSKDSTYSLSSTLTLSKADYEKHKVYACEVTHQGLSSPVTKSFNRGECGSSGGGGSGGGGSSGGVTGYRLFEEIL
notes: kappa light chain-linker-SmBiT; germline Vk1-12*01
For the molecule B2, the Percent pairing came out at 100% in [4]; 99% in assay [5]; 100% in [6]; 84% in assay [7]; 100% in assay [8].

B3: α-IGF1R light-SmBiT (SEQ ID NO: 120) (other)
light: EIVLTQSPGTLSVSPGERATLSCRASQSIGSSLHWYQQKPGQAPRLLIKYASQSLSGIPDRFSGSGSGTDFTLTISRLEPEDFAVYYCHQSSRLPHTFGQGTKVEIKRTVAAPSVFIFPPSDEQLKSGTASVVCLLNNFYPREAKVQWKVDNALQSGNSQESVTEQDSKDSTYSLSSTLTLSKADYEKHKVYACEVTHQGLSSPVTKSFNRGECGSSGGGGSGGGGSSGGVTGYRLFEEIL
notes: as for B1
With B3, the Percent pairing in assay [9] was 95%; in [10], 99%; in [11], 100%; in assay [12] it was 100%.

B4: α-neuropilin 1 light-SmBiT (SEQ ID NO: 132) (other)
light: DIQMTQSPSSLSASVGDRVTITCRASQYFSSYLAWYQQKPGKAPKLLIYGASSRASGVPSRFSGSGSGTDFTLTISSLQPEDFATYYCQQYLGSPPTFGQGTKVEIKRTVAAPSVFIFPPSDEQLKSGTASVVCLLNNFYPREAKVQWKVDNALQSGNSQESVTEQDSKDSTYSLSSTLTLSKADYEKHKVYACEVTHQGLSSPVTKSFNRGECGSSGGGGSGGGGSSGGVTGYRLFEEIL
notes: kappa light chain-linker-SmBiT; germline Vk1-39*01
B4: the Percent pairing in assay [13] amounted to 100%; in assay [14], 100%; in assay [15], 84%; in assay [16], 100%; in [17], 100%; in assay [18], 100%. Also, the Percent pairing in [19] and in assay [20] was 100% throughout.

B5: α-CD221 light-SmBiT (SEQ ID NO: 135) (other)
light: SSELTQDPAVSVALGQTVRITCQGDSLRSYYATWYQQKPGQAPILVIYGENKRPSGIPDRFSGSSSGNTASLTITGAQAEDEADYYCKSRDGSGQHLVFGGGTKLTVLGQPKANPTVTLFPPSSEELQANKATLVCLISDFYPGAVTVAWKADGSPVKAGVETTKPSKQSNNKYAASSYLSLTPEQWKSHRSYSCQVTHEGSTVEKTVAPTECSGSSGGGGSGGGGSSGGVTGYRLFEEIL
notes: lambda light chain-linker-SmBiT; germline Vl3-19*01
With B5, the Percent pairing was 96% in assay [21], 95% in assay [22], 100% in assay [23] and 100% in [24].

B6: α-death receptor 5 light-SmBiT (SEQ ID NO: 138) (other)
light: SSELTQDPAVSVALGQTVRITCSGDSLRSYYASWYQQKPGQAPVLVIYGANNRPSGIPDRFSGSSSGNTASLTITGAQAEDEADYYCNSADSSGNHVVFGGGTKLTVLGQPKANPTVTLFPPSSEELQANKATLVCLISDFYPGAVTVAWKADGSPVKAGVETTKPSKQSNNKYAASSYLSLTPEQWKSHRSYSCQVTHEGSTVEKTVAPTECSGSSGGGGSGGGGSSGGVTGYRLFEEIL
notes: as for B5
Consider B6, for which the Percent pairing came to 100% in assay [25], 100% in assay [26], 100% in assay [27] and 95% in assay [28].

B7: α-IL23 light-SmBiT (SEQ ID NO: 141) (other)
light: QSVLTQPPSVSGAPGQRVTISCTGSSSNIGSGYDVHWYQQLPGTAPKLLIYGNSKRPSGVPDRFSGSKSGTSASLAITGLQSEDEADYYCASWTDGLSLVVFGGGTKLTVLGQPKANPTVTLFPPSSEELQANKATLVCLISDFYPGAVTVAWKADGSPVKAGVETTKPSKQSNNKYAASSYLSLTPEQWKSHRSYSCQVTHEGSTVEKTVAPTECSGSSGGGGSGGGGSSGGVTGYRLFEEIL
notes: lambda light chain-linker-SmBiT; germline Vl1-40*01
Turning to B7, the Percent pairing was found to be 96% in assay [29], 93% in assay [30], 91% in [31] and 100% in [32].
